Test results as given in patent US20250076311A1 (Chugai, published 2025).

Experiments:
[1] = molecular target: T1, cynomolgus monkey FcγRIIa3 extracellular domain with C-terminal His-tag (cynomolgus monkey); assay: SPR (BIACORE), antibody captured, FcgR analyte
T1 construct: also called cyno FcgRIIa3; cynoFcγRIIa3; not shown: His-tag added to the C-terminus
T1 chain: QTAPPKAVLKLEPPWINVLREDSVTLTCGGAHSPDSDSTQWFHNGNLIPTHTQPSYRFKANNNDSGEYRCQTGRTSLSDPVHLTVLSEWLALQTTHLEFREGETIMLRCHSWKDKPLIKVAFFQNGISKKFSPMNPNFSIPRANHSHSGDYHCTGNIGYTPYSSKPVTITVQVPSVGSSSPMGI
Method: (§1) The kinetic analysis of interactions between these antibodies and FcγR was carried out using BIACORE® T200 or BIACORE® 4000 (GE Healthcare). HBS-EP+ (GE Healthcare) was used as the running buffer, and the measurement temperature was set to 25° C. […] After the measurement, the antibody captured on the chip was washed off by allowing reaction with 10 mM glycine-HCl, pH1.5 and 25 mM NaOH so that the chip was regenerated and used repeatedly. The sensorgrams obtained as measurement results were analyzed by the 1:1 Langmuir binding model using the BIACORE® Evaluation Software to calculate the binding rate constant ka (L/mol/s) and dissociation rate constant kd (1/s), and the dissociation constant KD (mol/L) was calculated from these values. […] Regarding such interactions, KD values were calculated using the following 1:1 binding model described in BIACORE® T100 Software Handbook BR1006-48 Edition AE.

[2] = molecular target: T2, human FcγRIIb extracellular domain with C-terminal His-tag (human, UniProt P31994 43-217); assay: SPR Biacore, antibody captured, FcgR analyte
T2 construct: also called human FcgRIIb; not shown: His-tag added to C-terminus
T2 sequence: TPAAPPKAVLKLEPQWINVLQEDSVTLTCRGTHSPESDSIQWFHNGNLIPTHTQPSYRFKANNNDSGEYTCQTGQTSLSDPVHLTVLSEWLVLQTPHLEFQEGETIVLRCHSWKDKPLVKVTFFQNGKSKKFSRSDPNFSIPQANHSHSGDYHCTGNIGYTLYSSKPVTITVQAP
Method: as §1

[3] = molecular target: T3, cynomolgus monkey FcγRIIIaS extracellular domain with C-terminal His-tag (cynomolgus monkey, UniProt A3RFZ7 21-206 (rhesus entry)); assay: SPR Biacore, antibody captured, FcgR analyte
T3 construct: also called cyno FcgRIIIaS; cynoFcγRIIIaS; not shown: His-tag added to C-terminus
Method: as §1

[4] = molecular target: T4, human FcγRIIaH extracellular domain, His-tagged (human, UniProt P12318 34-217); assay: SPR (Biacore), 25C, FcgR bound per antibody captured
T4 construct: also called human FcgRIIaH; FcγRIIa type H
T4 sequence: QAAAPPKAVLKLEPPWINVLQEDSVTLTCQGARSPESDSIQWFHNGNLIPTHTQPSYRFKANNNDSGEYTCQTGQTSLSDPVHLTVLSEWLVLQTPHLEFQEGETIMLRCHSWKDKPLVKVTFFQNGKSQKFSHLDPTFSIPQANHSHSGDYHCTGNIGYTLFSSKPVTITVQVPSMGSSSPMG

[5] = molecular target: T5, human FcγRIIb extracellular domain, His-tagged (human, UniProt P31994 43-217); assay: as above
T5 construct: also called human FcgRIIb
T5 sequence: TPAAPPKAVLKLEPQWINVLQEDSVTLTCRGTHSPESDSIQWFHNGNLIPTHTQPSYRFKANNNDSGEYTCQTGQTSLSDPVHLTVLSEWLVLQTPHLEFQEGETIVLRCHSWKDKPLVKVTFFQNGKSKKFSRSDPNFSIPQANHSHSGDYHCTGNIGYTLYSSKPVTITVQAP

[6] = molecular target: T6, human FcγRIIIaV extracellular domain, His-tagged (human, UniProt P08637 17-208); assay: as above
T6 construct: also called human FcgRIIIaV

[7] = molecular target: T7, human FcγRIIaR extracellular domain, His-tagged (human, UniProt P12318 34-217); assay: as above
T7 construct: also called human FcgRIIaR; FcγRIIa type R
T7 chain: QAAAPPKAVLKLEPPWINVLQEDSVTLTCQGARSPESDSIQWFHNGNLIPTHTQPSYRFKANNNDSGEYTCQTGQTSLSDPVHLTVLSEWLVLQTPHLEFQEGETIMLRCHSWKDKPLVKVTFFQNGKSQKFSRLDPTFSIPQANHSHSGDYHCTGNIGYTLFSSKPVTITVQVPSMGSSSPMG

T6 sequence (P08637 17-208 F176V): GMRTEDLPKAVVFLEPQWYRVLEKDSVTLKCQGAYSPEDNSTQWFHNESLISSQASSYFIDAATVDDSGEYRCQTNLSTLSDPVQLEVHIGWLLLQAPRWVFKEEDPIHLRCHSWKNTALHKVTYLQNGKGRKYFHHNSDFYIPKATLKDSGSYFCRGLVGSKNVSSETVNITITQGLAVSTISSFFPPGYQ
T3 sequence (A3RFZ7 21-206): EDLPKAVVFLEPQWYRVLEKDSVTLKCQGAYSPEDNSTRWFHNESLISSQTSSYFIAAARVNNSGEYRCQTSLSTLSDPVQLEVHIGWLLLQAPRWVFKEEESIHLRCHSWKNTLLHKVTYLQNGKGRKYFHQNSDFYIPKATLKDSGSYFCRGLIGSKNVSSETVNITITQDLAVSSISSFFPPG

Binder | Kd [1] [µM] | KD fold (SG1 = 1) [2] [fold] | KD fold (SG1 = 1) [3] [fold] | Binding to human FcgRs (parent B3 = 100) [4] | Binding to human FcgRs (parent B3 = 100) [5] | Binding to human FcgRs (parent B3 = 100) [6] | Binding to human FcgRs (parent B3 = 100) [7]
M103205H795-MY201/M103202L889-SK1 (antibody, human IgG1, kappa, Fc variant of MS1032LO06-SG1; also called MS1032LO06-MY201) heavy: QVTLKESGPVLVKPTETLTLTCTVSGIDLSHDDISWVRQAPGKGLEWVGIISYAGSTYYASWAKGRLTISKDTSKNQVVLTMTNMDPVDTATYYCARGVPAYSHGGDLWGQGTLVTVSSASTKGPSVFPLAPSSKSTSGGTAALGCLVKDYFPEPVTVSWNSGALTSGVHTFPAVLQSSGLYSLSSVVTVPSSSLGTQTYICNVNHKPSNTKVDKKVEPKSCDKTHTCPPCPAPELLNGPSVFLFPPKPKDTLMISRTPEVTCVVVDVSDEDPEVKFNWYVDGVEVHNAKTKPREEQYNSTYRVVSVLTVLHQDWLNGKEYKCKVSNKALPKPIEKTISKAKGQPREPQVYTLPPSREEMTKNQVSLTCLVKGFYPSDIAVEWESNGQPENNYKTTPPVLDSDGSFFLYSKLTVDKSRWQQGNVFSCSVMHEALHNHYTQKSLSLSP light: DIVMTQSPATLSLSPGERATLSCTSSQSVYHANWLSWFQQKPGQPPKLLIYWASTLAYGVPSRFSGSGSGTDFTLTISSLQPEDAATYYCAGGYGGGRYAFGQGTKVEIKRTVAAPSVFIFPPSDEQLKSGTASVVCLLNNFYPREAKVQWKVDNALQSGNSQESVTEQDSKDSTYSLSSTLTLSKADYEKHKVYACEVTHQGLSSPVTKSFNRGEC | 5.9 | – | – | – | – | – | –
M103205H795-MY201/M103202L889-SK1 (antibody, human IgG1, kappa, also called MS1032LO06-MY201) heavy: QVTLKESGPVLVKPTETLTLTCTVSGIDLSHDDISWVRQAPGKGLEWVGIISYAGSTYYASWAKGRLTISKDTSKNQVVLTMTNMDPVDTATYYCARGVPAYSHGGDLWGQGTLVTVSSASTKGPSVFPLAPSSKSTSGGTAALGCLVKDYFPEPVTVSWNSGALTSGVHTFPAVLQSSGLYSLSSVVTVPSSSLGTQTYICNVNHKPSNTKVDKKVEPKSCDKTHTCPPCPAPELLNGPSVFLFPPKPKDTLMISRTPEVTCVVVDVSDEDPEVKFNWYVDGVEVHNAKTKPREEQYNSTYRVVSVLTVLHQDWLNGKEYKCKVSNKALPKPIEKTISKAKGQPREPQVYTLPPSREEMTKNQVSLTCLVKGFYPSDIAVEWESNGQPENNYKTTPPVLDSDGSFFLYSKLTVDKSRWQQGNVFSCSVMHEALHNHYTQKSLSLSP light: DIVMTQSPATLSLSPGERATLSCTSSQSVYHANWLSWFQQKPGQPPKLLIYWASTLAYGVPSRFSGSGSGTDFTLTISSLQPEDAATYYCAGGYGGGRYAFGQGTKVEIKRTVAAPSVFIFPPSDEQLKSGTASVVCLLNNFYPREAKVQWKVDNALQSGNSQESVTEQDSKDSTYSLSSTLTLSKADYEKHKVYACEVTHQGLSSPVTKSFNRGEC | – | 4.7 | – | – | – | – | –
M103205H795-MY205/M103202L889-SK1 (antibody, human IgG1, kappa, also called MS1032LO06-MY205) heavy: QVTLKESGPVLVKPTETLTLTCTVSGIDLSHDDISWVRQAPGKGLEWVGIISYAGSTYYASWAKGRLTISKDTSKNQVVLTMTNMDPVDTATYYCARGVPAYSHGGDLWGQGTLVTVSSASTKGPSVFPLAPSSKSTSGGTAALGCLVKDYFPEPVTVSWNSGALTSGVHTFPAVLQSSGLYSLSSVVTVPSSSLGTQTYICNVNHKPSNTKVDKKVEPKSCDKTHTCPPCPAPELLNGPSVFLFPPKPKDTLMISRTPEVTCVVVDVSDEDPEVKFNWYVDGVEVHNAKTKPREELYNSTYRVVSVLTVLHQDWLNGKEYKCKVSNKALPKPIEKTISKAKGQPREPQVYTLPPSREEMTKNQVSLTCLVKGFYPSDIAVEWESNGQPENNYKTTPPVLDSDGSFFLYSKLTVDKSRWQQGNVFSCSVMHEALHNHYTQKSLSLSP light: DIVMTQSPATLSLSPGERATLSCTSSQSVYHANWLSWFQQKPGQPPKLLIYWASTLAYGVPSRFSGSGSGTDFTLTISSLQPEDAATYYCAGGYGGGRYAFGQGTKVEIKRTVAAPSVFIFPPSDEQLKSGTASVVCLLNNFYPREAKVQWKVDNALQSGNSQESVTEQDSKDSTYSLSSTLTLSKADYEKHKVYACEVTHQGLSSPVTKSFNRGEC | – | 8.7 | 0.08 | – | – | – | –
GpH7-B3 S239I / GpL16-k0 (antibody, human IgG1, kappa, also called B3 variant S239I) heavy: not shown light: DIVMTQSPLSLPVTPGEPASISCQASESLVHSNRNTYLHWYLQKPGQSPQLLIYKVSNRFSGVPDRFSGSGSGTDFTLKISRVEAEDVGVYYCSQNTHVPPTFGQGTKVEIERTVAAPSVFIFPPSDEQLKSGTASVVCLLNNFYPREAKVQWKVDNALQSGNSQESVTEQDSKDSTYSLSSTLTLSKADYEKHKVYACEVTHQGLSSPVTKSFNRGEC | – | – | – | 82 | 108 | 47 | 75
GpH7-B3 S239N / GpL16-k0 (antibody, human IgG1, kappa, also called B3 variant S239N) heavy: not shown light: DIVMTQSPLSLPVTPGEPASISCQASESLVHSNRNTYLHWYLQKPGQSPQLLIYKVSNRFSGVPDRFSGSGSGTDFTLKISRVEAEDVGVYYCSQNTHVPPTFGQGTKVEIERTVAAPSVFIFPPSDEQLKSGTASVVCLLNNFYPREAKVQWKVDNALQSGNSQESVTEQDSKDSTYSLSSTLTLSKADYEKHKVYACEVTHQGLSSPVTKSFNRGEC | – | – | – | 99 | 124 | 111 | 80
GpH7-B3 S239V / GpL16-k0 (antibody, human IgG1, kappa, also called B3 variant S239V) heavy: not shown light: DIVMTQSPLSLPVTPGEPASISCQASESLVHSNRNTYLHWYLQKPGQSPQLLIYKVSNRFSGVPDRFSGSGSGTDFTLKISRVEAEDVGVYYCSQNTHVPPTFGQGTKVEIERTVAAPSVFIFPPSDEQLKSGTASVVCLLNNFYPREAKVQWKVDNALQSGNSQESVTEQDSKDSTYSLSSTLTLSKADYEKHKVYACEVTHQGLSSPVTKSFNRGEC | – | – | – | 79 | 107 | 48 | 71
GpH7-B3 S267A / GpL16-k0 (antibody, human IgG1, kappa, also called B3 variant S267A) heavy: not shown light: DIVMTQSPLSLPVTPGEPASISCQASESLVHSNRNTYLHWYLQKPGQSPQLLIYKVSNRFSGVPDRFSGSGSGTDFTLKISRVEAEDVGVYYCSQNTHVPPTFGQGTKVEIERTVAAPSVFIFPPSDEQLKSGTASVVCLLNNFYPREAKVQWKVDNALQSGNSQESVTEQDSKDSTYSLSSTLTLSKADYEKHKVYACEVTHQGLSSPVTKSFNRGEC | – | – | – | 176 | 283 | 145 | 125
GpH7-B3 S298L / GpL16-k0 (antibody, human IgG1, kappa, also called B3 variant S298L) heavy: not shown light: DIVMTQSPLSLPVTPGEPASISCQASESLVHSNRNTYLHWYLQKPGQSPQLLIYKVSNRFSGVPDRFSGSGSGTDFTLKISRVEAEDVGVYYCSQNTHVPPTFGQGTKVEIERTVAAPSVFIFPPSDEQLKSGTASVVCLLNNFYPREAKVQWKVDNALQSGNSQESVTEQDSKDSTYSLSSTLTLSKADYEKHKVYACEVTHQGLSSPVTKSFNRGEC | – | – | – | 99 | 114 | 51 | 71
GpH7-B3 K334I / GpL16-k0 (antibody, human IgG1, kappa, also called B3 variant K334I) heavy: not shown light: DIVMTQSPLSLPVTPGEPASISCQASESLVHSNRNTYLHWYLQKPGQSPQLLIYKVSNRFSGVPDRFSGSGSGTDFTLKISRVEAEDVGVYYCSQNTHVPPTFGQGTKVEIERTVAAPSVFIFPPSDEQLKSGTASVVCLLNNFYPREAKVQWKVDNALQSGNSQESVTEQDSKDSTYSLSSTLTLSKADYEKHKVYACEVTHQGLSSPVTKSFNRGEC | – | – | – | 169 | 174 | 187 | 137
